Assay [1] has as its target IgE antibodies of serum E. Put plainly: ImmunoCAP inhibition, inhibitor 100 µg/mL, horse dander extract solid phase.
For assay [2], the target named is IgE antibodies of serum B. Described as above.
Assay [3] addresses IgE antibodies of serum D. Described as above.
In assay [4] the target is IgE antibodies of serum C. Described as above.
The target in assay [5] is IgE antibodies of serum A. Described as above.
For assay [6], the target named is IgE antibodies of serum E. Put plainly: ImmunoCAP inhibition, inhibitor 100 µg/mL, competitor rEqu c s on solid phase.
Assay [7] has as its target IgE antibodies of serum B. The assay is described as above.
The target in assay [8] is IgE antibodies of serum D. Described as above.
The target of assay [9] is IgE antibodies of serum C. The assay is described as above.
The target of assay [10] is IgE antibodies of serum A. Described as above.
Assay [11] concerns the target IgE antibodies of serum E. Put plainly: ImmunoCAP inhibition, inhibitor 100 µg/mL, competitor rFel d 1 on solid phase.
Assay [12] has as its target IgE antibodies of serum B. The assay is described as above.
Assay [13] concerns the target IgE antibodies of serum D. The description is as above.
The target in assay [14] is IgE antibodies of serum C. The description is as above.
The target in assay [15] is IgE antibodies of serum A. The assay is described as above.
Assay [16] deals with IgE antibodies of serum E. The assay is described as follows: ImmunoCAP inhibition, inhibitor 100 µg/ml, horse dander extract solid phase.
In assay [17] the target is IgE antibodies of serum B. Described as above.
Assay [18] concerns the target IgE antibodies of serum D. The description is as above.
In assay [19] the target is IgE antibodies of serum C. Described as above.
Assay [20] deals with IgE antibodies of serum A. Described as above.
The target in assay [21] is IgE antibodies of serum E. The assay is described as follows: ImmunoCAP inhibition, inhibitor 100 µg/ml, cat dander extract solid phase.
The target of assay [22] is IgE antibodies of serum B. Described as above.
Assay [23] has as its target IgE antibodies of serum D. Described as above.
In assay [24] the target is IgE antibodies of serum C. The description is as above.
The target of assay [25] is IgE antibodies of serum A. Described as above.

Two molecules from US20170219602A1 can be followed below.

B1: recombinant single chain Equ c s ab (protein)
chain: MDICPAVKEDVNIFLTGTPDDYVKKVSQYQRNPVILANAEKLKNCIDKKLTAEDKENALSVLEKIYSSDFCGGGGSGGGGSGGGGSCPSFYAVLGVLSLGSKTLLDTSLNLVNATEPEKVAMGKIQDCYNEAGVITKISDLIIMGTITTSPECISHALSTLTTDVQEGISKLNPLGRLEHHHHHH
Consider B1, for which the Inhibition (%) turned out to be 98% in [1]; 93% in assay [2]; 96% in assay [3]; 96% in [4]; 96% in assay [5]; 76% in assay [6]. In addition, the Inhibition (%) in [7] is 62%; in assay [8] it was 59%; in assay [9], 62%; in [10], 60%; in assay [11], 7%; in assay [12] it was -3%. Besides, the Inhibition (%) in assay [13] is 5%; in assay [14] it was -2%; in assay [15], -7%.

B2: recombinant Equ c 15k (protein, from a related filing, horse)
chain 1: ATCPAVATDIASFFLLPDSLFKLQLIKYQAPPEAKDATMQVKQCINEISAGDRYIITETLGKIVLQCGA
chain 2: GSGCQLLEDVVEKTITAELSPAEYVEAVQEFIPDEATEKAAIQLKQCYLKQSNETLNDFRTMMNSMYNSAYCALF
Take B2: the Inhibition (%) in assay [16] is 2%; in [17] it was -2%; in assay [18] it was 4%; in [19], 5%; in [20], -5%; in assay [1], -10%. Also, the Inhibition (%) in assay [2] was -2%; in [3] it was -6%; in assay [4], 0%; in [5] it was -10%; in assay [6] it was 4%; in [7], 5%. The Inhibition (%) in [8] was 8%; in assay [9], 7%; in assay [10], 12%; in assay [11], -3%; in [12] it was -4%; in assay [13] it was -2%. The Inhibition (%) in assay [14] was -6%; in assay [15] it was -5%; in assay [21], 4%; in assay [22], 6%; in assay [23], 0%; in [24], -2%. In assay [25], the Inhibition (%) is -2%.
